# In the RNAGym collection of RNA variant scans (doi:10.7554/elife.80360):
# B1: HDV Ribozyme (parent)
# chain: GGCCGGCAUGGUCCCAGCCUCCUCGCUGGCGCCGGCUGGGCAACAUUCCGAGGGGACCGUCCCCUCGGUAAUGGCGAAUGGGACCCA
# Variants of: B1
# Assay: self-cleavage, relative activity (ratio to wild type); higher = more cleavage; co-transcriptional
row,Variant,self-cleavage
1,A71G U72A,0.573
2,A71G U72C,0.705
3,G76A G81U,0.437
4,A71G G81U,0.291
5,U79G G81C,0.26
6,G80C A83U,0.164
7,A70G G81C,0.277
8,G74C A83G,0.104
9,A70C A83U,0.475
10,G81C A83G,0.131
11,G81C A83C,0.222
12,G81C A83U,0.237
13,U79C A83G,0.253
14,G82C C84G,0.101
15,A70U U72C,0.653
16,C75U G80A,0.0573
17,C75U G81U,0.193
18,C75U G81A,0.166
19,G76C G82A,0.432
20,G76C G82C,0.225
21,A71U C85A,1.08
22,U72G U79G,0.332
23,A70C A77U,0.237
24,G82C C86A,0.527

row,Variant,self-cleavage
1,A70U A71C,0.802
2,U79A C84G,0.256
3,G80U C85G,0.191
4,G73U A83U,0.0462
5,A71C C86G,0.63
6,G73A C84G,0.345
7,G74C A87U,0.304
8,U72A G76A,0.759
9,A71U G76U,1.17
10,A83C A87U,0.346
11,G76A A87U,1.08
12,G80A A87G,0.424
13,A78C U79A,0.0978
14,G73U G80U,0.124
15,G73U G80C,0.2
16,A78G U79C,0.225
17,A78G G80U,0.12
18,G76U G81A,0.506
19,G76U G82U,0.483
20,A70U G74U,0.499
21,A70U G74A,0.358
22,G81A C85U,0.163
23,A77U C84U,0.489
24,A83U C84G,0.332

row,Variant,self-cleavage
1,A83U C84A,0.813
2,U72G G73A,0.707
3,C75A C85G,0.116
4,C75A C85U,0.256
5,A71C G82C,0.268
6,G73A A78G,0.203
7,G73A A78U,0.106
8,A77G A87C,0.735
9,A77G A87G,0.966
10,C75A C86A,0.219
11,A77C A87G,0.208
12,U72G A77C,0.128
13,U72G A77G,0.178
14,G74A A77G,0.332
15,G74U C85G,0.617
16,G76U U79A,0.984
17,C75G A77C,0.128
18,C75G A77G,0.0755
19,C75G A77U,0.213
20,G73C G76U,0.659
21,G73C G76C,0.501
22,G76A A83U,0.875
23,A71G A83U,0.323
24,G74C,0.213

row,Variant,self-cleavage
1,G74U,0.569
2,G74A,0.478
3,G82C A87U,0.247
4,A71U C86U,1.02
5,G73U G82A,0.135
6,A70C C84G,0.323
7,A77G U79A,0.554
8,A77G U79G,0.465
9,A77G U79C,0.443
10,U72C G73C,0.208
11,U72C G73A,0.407
12,A70G U72G,0.582
13,U72G C85A,0.653
14,G74U G76C,0.831
15,G74U G76U,0.794
16,A78G A83C,0.128
17,G80U A87U,0.235
18,U72A U79G,0.361
19,U72A U79A,0.536
20,U79A G81A,0.0773
21,A83U C85U,0.446
22,G81U A87U,0.455
23,G74C G80U,0.127
24,U72A A77U,0.322

row,Variant,self-cleavage
1,G74U G81C,0.225
2,G74U G81U,0.156
3,A77C A78G,0.151
4,A77U A78C,0.332
5,A71G G74C,0.383
6,A71G G74U,0.658
7,A71G G74A,0.4
8,A71C G80A,0.266
9,A71C G80U,0.182
10,G74C A77U,0.104
11,C75A G82U,0.101
12,C75A G82C,0.188
13,G73C G80C,0.109
14,G82A C84G,0.232
15,G82A C84U,0.215
16,G76C C86U,0.886
17,A71C G81U,0.17
18,G74C C84G,0.0875
19,A70G A83C,0.344
20,C75U A83G,0.166
21,G74A C75U,0.141
22,A77U U79G,0.161
23,C75U C85G,0.122
24,C75U C85U,0.138

row,Variant,self-cleavage
1,C75U C85A,0.0959
2,G73U C84U,0.256
3,G81U A83U,0.126
4,G82C A83G,0.233
5,G82U C84G,0.249
6,A71C A77U,0.322
7,A71C A77G,0.569
8,A71C A77C,0.0978
9,C75U A77U,0.374
10,G73U G76A,0.208
11,G73U G76C,0.158
12,C75G C85U,0.237
13,G74A U79C,0.118
14,G73C C86G,0.415
15,G74U A77U,0.346
16,G76A C86U,0.92
17,A83C C84U,0.582
18,A78G C84G,0.185
19,G81C C85U,0.244
20,G73A G76C,0.516
21,G81C C86G,0.138
22,G81C G82A,0.0665
23,G73C G81C,0.0292
24,A70C G82U,0.166

row,Variant,self-cleavage
1,A70U A78C,0.0941
2,A71G G73C,0.6
3,A70U C85A,1.06
4,A70U C85U,0.746
5,C75U G82A,0.202
6,G80U A83C,0.254
7,G80U A83G,0.253
8,U72G G80U,0.0963
9,C75A G76A,0.166
10,C75A G76U,0.289
11,U72C G81U,0.148
12,G74U U79A,0.268
13,G80U C84U,0.164
14,G80U C84G,0.332
15,U72A C84U,0.578
16,U72A C84G,0.213
17,U79G C85A,0.415
18,A70G G74C,0.107
19,G73A A83G,0.511
20,U72C A78U,0.249
21,C84A A87C,0.758
22,A77C G80C,0.179
23,A77C G80A,0.0378
24,A83G C84U,0.798

row,Variant,self-cleavage
1,A70G G73C,0.356
2,G76C A83U,0.464
3,G76C A83G,0.554
4,G81U G82C,0.297
5,A71U G73U,0.237
6,A77G G82A,0.364
7,A77G G82U,0.277
8,A78C A83G,0.179
9,G74C G81U,0.0831
10,G74U A78C,0.201
11,G82A C86G,0.279
12,A71G A87C,1.03
13,A70G C75G,0.219
14,A70G C75U,0.136
15,U79A G80U,0.148
16,A77C C84A,0.128
17,G81A A87G,0.258
18,U69G U79G,0.895
19,G74U C75G,0.13
20,A77C A83C,0.172
21,A71C G76C,0.848
22,A71C G76A,0.935
23,A71U A77C,0.287
24,G74A A87C,0.583

row,Variant,self-cleavage
1,G74A A87U,0.628
2,A71C C84G,0.415
3,G74U C84U,0.213
4,A70U C84A,0.969
5,A83U C86G,0.361
6,A83U C86A,0.708
7,A70G C86U,1.23
8,C75U C86U,0.0563
9,U72C C75G,0.166
10,U72G A87G,0.546
11,G73U G81U,0.208
12,A71U C75A,0.0739
13,G74A G82C,0.249
14,G74A G82A,0.0656
15,U72C G80C,0.19
16,U72C A77U,0.285
17,U72C A77G,0.229
18,C75U A87G,0.0917
19,A77U A87G,0.591
20,A78U G81C,0.213
21,U79C G82C,0.222
22,U79C G82U,0.256
23,A78C G81C,0.0665
24,A78C G81U,0.128

row,Variant,self-cleavage
1,A78U C84U,0.252
2,G76C G80U,0.256
3,A70G C84U,0.743
4,U72G G82C,0.453
5,A78C,0.164
6,A78U,0.316
7,A78G,0.75
8,A78G C86G,0.806
9,U72G A83C,0.332
10,G80C C84G,0.163
11,G80C C84U,0.16
12,G76A C84U,1.05
13,G76A C84G,0.939
14,G76A U79C,0.964
15,A78U G80A,0.111
16,U72C G74U,0.584
17,C75G C84G,0.282
18,G73U A87G,0.452
19,A77C G82C,0.116
20,A70G A87G,1.01
21,A71G C75U,0.151
22,U72G C86G,0.6
23,U72G C86A,1.16
24,U72A C75A,0.222

row,Variant,self-cleavage
1,A70G U79A,0.77
2,A70G U79C,0.365
3,A70G U79G,0.582
4,U79G G82C,0.119
5,A71C A87U,0.844
6,A71C A87C,0.755
7,U79G A83U,0.122
8,A77C C86G,0.302
9,A77C C86U,0.519
10,A71C A78G,0.615
11,A71C A78C,0.219
12,G76C G81U,0.475
13,A70C C85A,0.883
14,A71G G82C,0.151
15,G82A A83C,0.451
16,G82A A83G,0.156
17,U72A G74A,0.373
18,G73A A87C,0.643
19,G73A A77U,0.189
20,G73A A77G,0.386
21,G74A G76A,0.443
22,A71G U79C,0.339
23,U72G G74U,0.264
24,G76C A77U,0.399

row,Variant,self-cleavage
1,U72A C86U,0.957
2,A70G C85A,1.07
3,A71C C85U,0.875
4,G82U C86U,0.554
5,G73U C86G,0.354
6,G80C C85G,0.205
7,C75G G76C,0.189
8,G74A A83U,0.272
9,A78U U79G,0.138
10,A78U U79C,0.375
11,G80C C86A,0.213
12,G80C C86U,0.3
13,A70C G81C,0.201
14,U79C C85G,0.287
15,U79C C85A,0.389
16,G74A G81A,0.213
17,G74A G81U,0.12
18,A77G A83G,0.906
19,U79C C84A,0.462
20,G76A C85U,1.11
21,A71G G76C,0.73
22,A71G G76A,1
23,C75A A87G,0.251
24,A70G A71U,0.852

row,Variant,self-cleavage
1,U79A A83U,0.256
2,A70C G80U,0.217
3,U79A G82C,0.0504
4,U79A G82U,0.374
5,A78G A87G,0.658
6,C75G G82A,0.208
7,U72A G82U,0.225
8,U72A G82A,0.295
9,G73C U79A,0.302
10,A77G C85U,1.04
11,A77G C85G,0.655
12,G76U A77U,0.868
13,U79A C85A,0.724
14,G81C,0.268
15,G81U,0.365
16,G81A,0.403
17,G74U C86G,0.485
18,G80A C86G,0.362
19,G73A G81C,0.425
20,G73A G81U,0.18
21,G76C U79A,0.649
22,G76C U79C,0.643
23,G76C U79G,0.617
24,A71G G80C,0.271

row,Variant,self-cleavage
1,G81U C86A,0.652
2,A78U C85A,0.185
3,A78U C85U,0.18
4,U72A G73C,0.628
5,G81A C86A,0.805
6,A78U A87U,0.243
7,A71C G74U,0.789
8,C75U G76U,0.271
9,G76C A78U,0.339
10,G82U A87C,0.406
11,G80A G81A,0.185
12,C75G A87C,0.073
13,A70C A71C,0.762
14,A70C A71G,0.831
15,A78G G81C,0.148
16,A77G G80A,0.242
17,C75G A83G,0.153
18,A70G G80C,0.104
19,G81A C84G,0.237
20,G73U U79G,0.374
21,G74A C84A,0.389
22,G74A C84G,0.168
